Like-named read-outs stand apart in the source and are kept apart here.
Experiments:
[1] = target: β-synuclein (endogenous) (mouse (endogenous in C57BL/6 brain)) (UniProt Q91ZZ3); test: co-IP; reverse co-IP from dephosphorylated wild-type mouse brain lysate (neither heated nor dialyzed) with antibodies for synaptophysin, β-synuclein or apoA1; blot probed with Dako Tau antibody, the three Tau isoforms quantified with ImageJ
[2] = target: synaptophysin (endogenous) (mouse (endogenous in C57BL/6 brain)) (UniProt Q62277); test: as above
[3] = target: β-synuclein (endogenous) (mouse (endogenous in C57BL/6 brain)) (UniProt Q91ZZ3); test: as above; remark: listed apart in the source
[4] = target: recombinant 2N Tau (Mtau2310, 2N4R, with N-terminal GST tag) (murine); test: ELISA; plates coated overnight at 4 °C with recombinant 0N, 1N or 2N Tau at 10 μg/ml in PBS, blocked with 3% BSA; recombinant β-synuclein and synaptophysin at 10 μg/ml in PBS for 1 h at room temperature, detected with anti-V5; recombinant apoA1 detected with an anti-apoA1 antibody; absorbance at 450 nm after subtraction of BSA-coated wells
[5] = target: recombinant 1N Tau (Mtau210, 1N4R, with N-terminal GST tag) (murine); test: as above

Sequence of UniProt Q62277 (Q62277 whole entry): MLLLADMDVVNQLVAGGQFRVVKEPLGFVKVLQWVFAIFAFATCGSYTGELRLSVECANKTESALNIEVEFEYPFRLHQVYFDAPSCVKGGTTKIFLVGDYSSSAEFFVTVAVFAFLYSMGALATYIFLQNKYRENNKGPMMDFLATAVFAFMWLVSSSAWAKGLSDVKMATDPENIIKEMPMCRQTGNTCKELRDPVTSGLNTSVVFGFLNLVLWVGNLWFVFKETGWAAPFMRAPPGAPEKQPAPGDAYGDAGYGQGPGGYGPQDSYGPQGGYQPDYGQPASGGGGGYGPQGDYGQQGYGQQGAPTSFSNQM

Substance | ratio to 0N Tau (Western blot of the reverse IP) [1] | ratio to 0N Tau (Western blot of the reverse IP) [2] | ratio to 0N Tau (Western blot of the reverse IP) [3] | ratio to 0N Tau (ELISA absorbance) [4] | ratio to 0N Tau (ELISA absorbance) [5]
1N Tau (endogenous) (natural protein) | 0.41 | 0.97 | 0.897 | – | –
recombinant β-synuclein (C-terminal His6 and V5 tag) (from UniProt Q91ZZ3 1-133) (natural protein) | – | – | – | 0.26 | 0.63
2N Tau (endogenous) (natural protein) | 0.37 | 0.93 | 0.5 | – | –

From paper PMC4825019
